Laboratory results taken from patent publication US20100291638.

Tests used:
[1] = system: T1, DNA polymerase 3173 (uncultured hot spring virus (Octopus Spring)); conditions: reverse transcription, 60 C 20 min, MgCl2 and MnCl2
T1 sequence: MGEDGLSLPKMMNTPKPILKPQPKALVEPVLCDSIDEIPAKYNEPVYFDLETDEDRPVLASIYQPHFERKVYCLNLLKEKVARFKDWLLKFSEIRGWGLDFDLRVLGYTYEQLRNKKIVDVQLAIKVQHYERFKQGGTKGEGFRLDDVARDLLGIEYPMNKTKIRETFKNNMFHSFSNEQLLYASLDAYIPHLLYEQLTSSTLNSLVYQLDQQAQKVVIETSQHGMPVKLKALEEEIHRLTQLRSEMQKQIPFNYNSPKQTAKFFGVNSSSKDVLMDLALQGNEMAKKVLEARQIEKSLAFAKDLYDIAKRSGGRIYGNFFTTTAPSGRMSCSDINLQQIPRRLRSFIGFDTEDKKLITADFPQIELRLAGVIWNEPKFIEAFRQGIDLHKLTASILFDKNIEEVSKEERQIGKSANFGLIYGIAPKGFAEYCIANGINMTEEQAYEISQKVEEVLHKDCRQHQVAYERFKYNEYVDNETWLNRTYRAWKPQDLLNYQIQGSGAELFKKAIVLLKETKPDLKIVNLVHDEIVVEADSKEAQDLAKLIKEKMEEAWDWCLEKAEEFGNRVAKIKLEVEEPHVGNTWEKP

[2] = molecular target: MMLV reverse transcriptase (Moloney murine leukemia virus) (UniProt P03355); conditions: reverse transcription, manufacturer's conditions
Tth DNA polymerase = Tth DNA polymerase (UniProt P52028); conditions: reverse transcription, manufacturer's conditions
[3] = system: T1, DNA polymerase 3173 (uncultured hot spring virus (Octopus Spring)); conditions: Km for primed M13 DNA; 70 C; dNTPs in excess

Chain of UniProt P52028 (P52028 whole entry): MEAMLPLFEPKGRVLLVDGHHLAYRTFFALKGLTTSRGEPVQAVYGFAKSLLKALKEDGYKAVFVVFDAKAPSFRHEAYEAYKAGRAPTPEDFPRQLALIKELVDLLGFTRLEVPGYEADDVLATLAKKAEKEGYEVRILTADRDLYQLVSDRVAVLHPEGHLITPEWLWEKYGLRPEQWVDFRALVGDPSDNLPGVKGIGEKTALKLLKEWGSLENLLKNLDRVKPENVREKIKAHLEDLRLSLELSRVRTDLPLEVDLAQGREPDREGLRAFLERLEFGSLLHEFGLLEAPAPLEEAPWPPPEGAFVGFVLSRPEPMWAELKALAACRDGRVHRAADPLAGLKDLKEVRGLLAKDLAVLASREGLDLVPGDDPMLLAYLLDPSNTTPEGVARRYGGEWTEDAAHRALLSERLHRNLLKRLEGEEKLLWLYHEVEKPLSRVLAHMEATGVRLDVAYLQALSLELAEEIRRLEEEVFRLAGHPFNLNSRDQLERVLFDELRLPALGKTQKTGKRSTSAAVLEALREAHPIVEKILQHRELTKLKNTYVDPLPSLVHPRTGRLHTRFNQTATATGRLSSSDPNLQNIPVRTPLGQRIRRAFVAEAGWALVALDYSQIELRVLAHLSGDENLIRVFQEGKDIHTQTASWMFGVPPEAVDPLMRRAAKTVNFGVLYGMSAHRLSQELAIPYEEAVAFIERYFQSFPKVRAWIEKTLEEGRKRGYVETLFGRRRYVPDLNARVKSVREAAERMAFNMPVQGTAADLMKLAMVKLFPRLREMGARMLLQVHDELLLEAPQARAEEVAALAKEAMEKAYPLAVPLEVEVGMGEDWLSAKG

Row | Substance | activity [1] [nmol dTTP] | activity [2] [nmol dTTP] | activity (Tth DNA polymerase) [nmol dTTP] | K half [3] [nM]
1 | poly rA:oligo dT | 1.04 | 1.11 | 0.802 | 
2 | primed single-stranded M13 DNA |  |  |  | 5.3
